Drawing on patent US20180238915A1 (published 2018), this text covers koff for 2 molecules.

The target in test [1] is T1, negatively modulated GCSF receptor (GCSFR(-)) (UniProt Q99062 25-621, modified by S-HyNic and conjugated through HyNic-4FB bonds to a 64-base DNA oligonucleotide (SEQ. ID 2, 5' C12 amino modifier); number and sites not stated).
T1 chain: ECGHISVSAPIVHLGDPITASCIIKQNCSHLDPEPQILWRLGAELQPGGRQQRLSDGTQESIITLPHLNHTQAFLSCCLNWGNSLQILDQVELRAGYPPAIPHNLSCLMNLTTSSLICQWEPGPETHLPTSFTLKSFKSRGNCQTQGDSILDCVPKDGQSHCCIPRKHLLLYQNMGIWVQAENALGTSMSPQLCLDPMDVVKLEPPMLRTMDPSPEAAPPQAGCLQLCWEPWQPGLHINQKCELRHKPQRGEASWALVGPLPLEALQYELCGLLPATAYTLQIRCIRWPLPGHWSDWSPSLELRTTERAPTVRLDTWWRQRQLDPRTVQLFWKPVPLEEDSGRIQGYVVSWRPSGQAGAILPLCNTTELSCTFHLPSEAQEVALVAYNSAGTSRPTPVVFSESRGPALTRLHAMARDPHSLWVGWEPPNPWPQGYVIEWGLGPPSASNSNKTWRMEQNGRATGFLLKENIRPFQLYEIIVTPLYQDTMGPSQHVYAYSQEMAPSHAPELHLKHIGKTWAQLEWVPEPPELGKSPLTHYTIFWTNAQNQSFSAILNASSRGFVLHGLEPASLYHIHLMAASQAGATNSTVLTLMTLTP

In test [2] the target is receptor.
Test [3] concerns the target receptor. Briefly: BLI.

Like-named read-outs stand apart in the source and are kept apart here. Where only a bound is given, the exact number is not on record here.

B1: labeled G-CSF (Alexa Fluor 488) (ligand)
chain: TPLGPASSLPQSFLLKCLEQVRKIQGDGAALQEKLCATYKLCHPEELVLLGHSLGIPWAPLSSCPSQALQLAGCLSQLHSGLFLYQGLLQALEGISPELGPTLDTLQLDVADFATTIWQQMEELGMAPALQPTQGAMPAFASAFQRRAGGVLVASHLQSFLEVSYRVLRHLAQP
modifications: Alexa Fluor 488 label (carboxylic acid succinimidyl ester); sites not stated
B1 showed a koff in test [1] of 5e-05 s⁻¹.

B2: G-CSF (ligand)
chain: TPLGPASSLPQSFLLKCLEQVRKIQGDGAALQEKLCATYKLCHPEELVLLGHSLGIPWAPLSSCPSQALQLAGCLSQLHSGLFLYQGLLQALEGISPELGPTLDTLQLDVADFATTIWQQMEELGMAPALQPTQGAMPAFASAFQRRAGGVLVASHLQSFLEVSYRVLRHLAQP
In the case of B2, the values for the koff in the test with receptor [2] and with receptor [3] were 3.8e-05 s⁻¹ and < 1e-06 s⁻¹, respectively.

A word on the koff: it is the first-order rate constant of dissociation. A low value points to a long-lived complex.
